Measured values: patent publication US20260070949A1 (NOVOZYMES A S, published 2026)

B1: active deamidase from Chryseobacterium sp-62563 (protein)
chain: AVSVIPNLATLNSLFAQIKNQACGTSTASSPCITFRYPVDGCYARAHKMRQILLNAGYDCEKQFVYGNLRASTGTCCVSWVYHVAILVSFKNASGVVEKRIIDPSLFSSGPVTDAAWRAACTNTSCGSASVSSFANTAGNVYYRSPSGSLLYDNNYVNTNCVLNIFSSLSGCSPSPAPSVASCGF
B2: deamidase inhibitor from Chryseobacterium sp-62563 (other)
chain: QNLTWYNNSTITNITEDPDKPNEVVRVSIGISAQVFYLSKKSTDYKTLLEKATQSFKKSKTYDIGIENKTNIIKEIKEVK

Assays:
[1] = target: T1, deamidase inhibitor from Chryseobacterium sp-62563
T1 chain: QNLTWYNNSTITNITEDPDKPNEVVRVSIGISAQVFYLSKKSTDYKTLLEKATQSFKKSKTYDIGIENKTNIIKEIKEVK

[2] = target: T2, active deamidase from Chryseobacterium sp-62563 (Chryseobacterium sp-62563); experiment: nanoDSF at 330 nm, Tm of the deamidase/inhibitor complex; active deamidase alone (SEQ ID NO: 4) gave 66.3° C.
T2 construct: Protein-glutamine glutaminase (EC 3.5.1.44), called 'active deamidase'
T2 chain: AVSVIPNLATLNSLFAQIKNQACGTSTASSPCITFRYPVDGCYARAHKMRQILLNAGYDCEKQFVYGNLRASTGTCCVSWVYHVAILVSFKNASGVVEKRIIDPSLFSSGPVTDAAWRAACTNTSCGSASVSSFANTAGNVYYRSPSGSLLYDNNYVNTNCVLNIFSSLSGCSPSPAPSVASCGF
Procedure: 60 μL sample was transferred in replicates to a black-bottomed 384 well plate, and the plate was briefly centrifugated to remove potential air bubbles.
The thermal unfolding temperature of the samples was analyzed using a Prometheus NT.Plex system from NanoTemper Technologies GmbH, with the following settings: [0305] (i) Temperature scan rate: 3.3° C. per minute; and [0306] (ii) Temperature scan interval: 20-95° C.
Using the nanoDSF procedure, as described in Example 2, the thermal unfolding temperature of an active deamidase and the corresponding deamidase/inhibitor complex was measured.

Binder | deamidase activity (% initial rate), fluorescence substrate FITC-PP-Dnp with glutamyl endopeptidase [1] | NanoDSF thermal unfolding temperature [2] [° C.]
B1 | the deamidase activity (% initial rate) was significantly reduced | 
B2 |  | 70.1
